Laboratory results published in publication PMC2141736.

Target: Schistosoma japonicum glutathione S-transferase (GST) (Schistosoma japonicum)
Assay: cross-linking

With “Schistosoma japonicum glutathione S-transferase (GST) (enzyme)” the stoichiometry N was 2.
